We go through 1 substance from paper PMC9974412.

This experiment deals with HIV-1 Env, strain HXB2 (HIV-1) (UniProt P04578).

In turn, 5-Helix (designed binder) showed an IC50 of neutralisation of HXB2 Env-pseudotyped lentivirus, HOS-CD4-CCR5 cells of 8.2 nM.
